# Test results: patent publication US20150104469A1 (EXTEND BIOSCIENCES, published 2015)
# Target: GHS-R receptor
# Test: cell-based or functional assay
# Chain of GHS-R receptor (Q92847 whole entry): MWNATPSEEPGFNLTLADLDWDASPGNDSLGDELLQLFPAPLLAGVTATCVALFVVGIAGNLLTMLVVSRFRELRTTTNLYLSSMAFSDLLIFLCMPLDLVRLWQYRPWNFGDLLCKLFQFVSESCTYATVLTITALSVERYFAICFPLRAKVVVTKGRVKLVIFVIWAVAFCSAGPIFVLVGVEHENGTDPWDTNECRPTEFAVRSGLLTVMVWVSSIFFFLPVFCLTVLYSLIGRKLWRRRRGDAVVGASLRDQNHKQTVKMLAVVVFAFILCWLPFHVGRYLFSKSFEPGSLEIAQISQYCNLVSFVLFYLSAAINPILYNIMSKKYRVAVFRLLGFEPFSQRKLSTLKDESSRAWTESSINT
binder,measurement,value
GSSFLSPEHQKAQQRKESKKPPAKLQPRC (n-octanoyl-Ser at position 3; Vitamin D3-PEG (2 kDa)-maleimide carrier coupled to the free thiol of the added C-terminal cysteine) [Vitamin D3-PEG-maleimide carrier-conjugated ghrelin from Example 3],"EC50, calcium flux (FLIPR) % activation in GHS-R-expressing CHO-K1 cells",85 nM
